Assay [1] concerns the target T1, HPV35 E7 protein, recombinant (His-TEV-E7 fusion from E. coli) (Human Papilloma Virus type 35 (HPV35), UniProt P27230 1-99, CKII phosphorylation of the consensus site serines in the antigen preparation of Example 2).
T1 construct: mature; also called VE7_HPV35; not shown: N-terminal 6x Histidine tag and TEV cleavage site of the vector
T1 sequence: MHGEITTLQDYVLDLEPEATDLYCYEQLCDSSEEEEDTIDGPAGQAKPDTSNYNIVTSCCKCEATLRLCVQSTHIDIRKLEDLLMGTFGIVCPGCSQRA
Description: ELISA and dot-blot, semiquantitative crossreactivity (+ weak interaction). Background: In an ELISA, binding on a coated surface is turned into a signal by an enzyme label.

The target in assay [2] is T2, HPV38 E7 protein (beta-papillomavirus), recombinant (His-TEV-E7 fusion from E. coli) (Human Papilloma Virus type 38 (HPV38), UniProt Q80908 1-100).
T2 construct: mature; also called HPVE7 38; VE7_HPV38; not shown: N-terminal 6x Histidine tag and TEV cleavage site of the vector
T2 sequence: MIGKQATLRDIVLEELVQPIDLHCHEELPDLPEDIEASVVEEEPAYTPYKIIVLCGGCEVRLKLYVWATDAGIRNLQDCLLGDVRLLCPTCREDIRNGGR
Kind of assay: ELISA and dot-blot.

Assay [3] concerns the target T3, HPV5 E7 protein (beta-papillomavirus), recombinant (His-TEV-E7 fusion from E. coli) (Human Papilloma Virus type 5 (HPV5), UniProt P06932 1-103).
T3 construct: mature; also called VE7_HPV05; not shown: N-terminal 6x Histidine tag and TEV cleavage site of the vector
T3 sequence: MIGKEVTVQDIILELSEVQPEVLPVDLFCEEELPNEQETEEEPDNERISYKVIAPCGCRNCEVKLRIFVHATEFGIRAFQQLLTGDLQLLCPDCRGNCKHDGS
Kind of assay: ELISA and dot-blot.

For assay [4], the target named is T4, HPV11 E7 protein (low risk type), recombinant (His-TEV-E7 fusion from E. coli) (Human Papilloma Virus type 11 (HPV11), UniProt P04020 1-98).
T4 construct: mature; also called VE7_HPV11; not shown: N-terminal 6x Histidine tag and TEV cleavage site of the vector
T4 sequence: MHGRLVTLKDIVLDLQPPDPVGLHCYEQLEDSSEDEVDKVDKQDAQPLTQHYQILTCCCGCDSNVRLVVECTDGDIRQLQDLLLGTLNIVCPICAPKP
Kind of assay: ELISA and dot-blot.

Assay [5] concerns the target T5, HPV6 E7 protein (low risk type), recombinant (His-TEV-E7 fusion from E. coli) (Human Papilloma Virus type 6 (HPV6), UniProt Q84292 1-98).
T5 construct: mature; the only HPV6 entry in the list of constructs is VE7_HPV6A; also called VE7_HPV6A; not shown: N-terminal 6x Histidine tag and TEV cleavage site of the vector
T5 sequence: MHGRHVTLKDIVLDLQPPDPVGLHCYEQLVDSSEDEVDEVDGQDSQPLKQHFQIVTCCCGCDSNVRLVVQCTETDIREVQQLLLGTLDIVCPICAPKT
Kind of assay: ELISA and dot-blot.

For assay [6], the target named is T6, HPV52 E7 protein, recombinant (His-TEV-E7 fusion from E. coli) (Human Papilloma Virus type 52 (HPV52), UniProt P36831 1-99, CKII phosphorylation of the consensus site serines in the antigen preparation of Example 2).
T6 construct: mature; also called VE7_HPV52; not shown: N-terminal 6x Histidine tag and TEV cleavage site of the vector
T6 sequence: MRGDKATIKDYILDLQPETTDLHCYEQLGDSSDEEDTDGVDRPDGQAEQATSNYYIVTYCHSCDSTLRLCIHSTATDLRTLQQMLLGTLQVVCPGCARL
Description: ELISA and dot-blot, semiquantitative crossreactivity (++ strong positive).

The target in assay [7] is T7, HPV33 E7 protein, recombinant (His-TEV-E7 fusion from E. coli) (Human Papilloma Virus type 33 (HPV33), UniProt P06429 1-97, CKII phosphorylation of the consensus site serines in the antigen preparation of Example 2; biotin on primary amines in the SPR assay).
T7 construct: mature; also called VE7_HPV33; not shown: N-terminal 6x Histidine tag and TEV cleavage site of the vector
T7 sequence: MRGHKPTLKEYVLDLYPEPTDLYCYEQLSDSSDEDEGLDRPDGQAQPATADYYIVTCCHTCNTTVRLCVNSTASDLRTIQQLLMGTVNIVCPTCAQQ
The description is as above.

For assay [8], the target named is T8, HPV31 E7 protein, recombinant (His-TEV-E7 fusion from E. coli) (Human Papilloma Virus type 31 (HPV31), UniProt P17387 1-98, CKII phosphorylation of the consensus site serines in the antigen preparation of Example 2).
T8 construct: mature; also called VE7_HPV31; not shown: N-terminal 6x Histidine tag and TEV cleavage site of the vector
T8 sequence: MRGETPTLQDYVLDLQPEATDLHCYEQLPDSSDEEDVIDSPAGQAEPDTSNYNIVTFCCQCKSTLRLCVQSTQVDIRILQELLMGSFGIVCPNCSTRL
The assay is described as above.

In assay [9] the target is T9, HPV16 E7 protein, recombinant (His-TEV-E7 fusion from E. coli) (Human Papilloma Virus type 16 (HPV16), UniProt P03129 1-98, CKII phosphoserines at E7 S31 and S32 (chain 1 pos 49 and 50) in the antigen preparation of Example 2, written S; biotin on primary amines (Sulfo-NHS-LC Biotin) in the SPR assay.).
T9 construct: also called VE7_HPV16
T9 sequence: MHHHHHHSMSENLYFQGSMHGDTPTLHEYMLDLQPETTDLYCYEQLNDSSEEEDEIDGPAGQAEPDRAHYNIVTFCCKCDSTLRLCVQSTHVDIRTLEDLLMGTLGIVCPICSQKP
Kind of assay: SPR (BIAcore X100), biotin-E7 on streptavidin SA chip, antibody as analyte, bivalent analyte fit, 25 C.

Assay [10] addresses T10, HPV45 E7 protein, recombinant (His-TEV-E7 fusion from E. coli) (Human Papilloma Virus type 45 (HPV45), UniProt P21736 1-106, CKII phosphorylation of the consensus site serines in the antigen preparation of Example 2; biotin on primary amines in the SPR assay).
T10 construct: mature; also called VE7_HPV45; not shown: N-terminal 6x Histidine tag and TEV cleavage site of the vector
T10 sequence: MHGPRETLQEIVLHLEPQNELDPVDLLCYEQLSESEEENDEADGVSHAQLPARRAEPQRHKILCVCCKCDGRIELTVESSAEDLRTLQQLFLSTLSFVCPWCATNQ
Kind of assay: ELISA and dot-blot, semiquantitative crossreactivity.

By kon is commonly meant the second-order rate constant of association.

B1: ACAB452 (antibody, IgG1, V domains shown)
VH: DVQLQESGPGLVKPSQSLSLTCTVTGYSITSDYAWNWIRQFPGNKLEWVGYITYSGSTNYNPSLKSRISITRDTSKNQFFLQFNSVTSEDTATYFCARSWFAYWGQGTLVTVSS
VL: DIVMTQTPLSLPVSLGDQASISCRSSQSLVHSNGNTYLHWFLQKPGQSPKLLIYKVSNRFSGVPDRFSGSGSGTDFTLKISRVEAEDLGVYFCLQSAHVPLTFGAGTKLELTR
notes: also called HPV45E7 IgG1 antibody ACAB452
For B1, the binding result in assay [1] is “binds”; in [2], “no binding”; in assay [3], “no binding”; in assay [4], “no binding”; in assay [5], “no binding”.

B2: ACAB161 (antibody, IgG2a, V domains shown)
VH: EVMLVESGGGLVKPGGSLKLSCAASGFTFSRYTMSWVRQTPEKRLEWVATISSGGTNTNYTDSVKGRFTISRDNAKNNLYLQMSSLRSEDTALYYCTRGVRRGDGYAMDYWGQGTSVTVSS
VL: DIVLTQAAPSVPVTPGESVSISCRSTKSLLHSNGNTYLYWFLQRPGQSPQALIYRTSNLASGVPDRFSGSGSGTAFTLRISRVEAEDVGVYYCMQHLEYPLTFGAGTKLELKR
notes: the printed entries run on into the first residues of the constant domains; also called HPV16E7 IgG2a antibody ACAB161
As for B2, the binding result in assay [6] is “binds”; in assay [7] it was “binds”; in [8], “binds”; in assay [1], “binds”; in assay [10], “no binding”; in [2] it was “no binding”. Also, the binding result in assay [3], in [4] and in assay [5] was “no binding” in each case. For the same molecule, the Kd in [9] is 3.38 nM. Also, the kon in assay [9] came out at 58400 M⁻¹ s⁻¹.

B3: ACAB164 (antibody, V domains shown)
VH: EVQLQQSGLALVQPGASVKISCRTSGYTFTEYTLHWVKQSHGKSLEWIGGINPNNGSPKYNQKFKGKATLTVDKSSSTAYMELRSLTSEDSAVYYCARLDINSFFDYWGQGTTLTVSS
VL: DVVMTQSPLSLPVSLGDQASISCRSSQSLVHSNGNTYLQWYLQKPGQSPKLLIYKLSNRFSGVPDRFSGSGSGTDFTLKISRVEAEDLGVYSCSQTTHVPPTFGGGTKLEIKR
notes: the printed entries run on into the first residues of the constant domains; also called HPV16E7 IgG2a antibody ACAB164
Turning to B3, the binding result was “binds” in assay [6]; “binds” in assay [7]; “binds” in assay [8]; “no binding” in assay [10]; “no binding” in [2]; “no binding” in assay [3]. Besides, the binding result in assay [4] and in assay [5] was “no binding” in each case. Besides, the Kd in assay [9] turned out to be 0.052 nM. In assay [9], the kon was 261000 M⁻¹ s⁻¹.

The values are drawn from US20150023979A1 (VALDOSPAN, published 2015).
